Paper PMC3418412

How the values were obtained:
[1] = target: purified Hsp90-Y313E (UniProt P07900)
[2] = target: purified wild type Hsp90 (UniProt P07900)

Substance: purified AHA1 protein (from UniProt O95433 1-338) (natural protein)
- Kd [1]: 3.7 µM
- Kd [2]: 13 µM
